Experimental findings from patent US20220119534A1 (DRAGONFLY THERAPEUTICS, published 2022) are described below.

Experiment [1] has as its target T1, mFc-hNKG2D (human, UniProt P26718 73-216).
T1 construct: extracellular domain; Made in house (Dragonfly Tx); the order of tag and ECD follows the name mFc-hNKG2D; also called mFc-tagged human NKG2D; not shown: mouse Fc tag
T1 sequence (looked up): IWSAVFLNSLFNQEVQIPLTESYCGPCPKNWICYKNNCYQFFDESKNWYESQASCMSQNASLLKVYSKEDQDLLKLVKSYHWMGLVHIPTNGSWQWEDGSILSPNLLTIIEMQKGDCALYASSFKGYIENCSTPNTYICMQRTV
Kind of experiment: SPR Biacore 8K 37 C; mFc-hNKG2D captured on anti-mFc chip, TriNKET as analyte; steady state fit; after low pH hold, n=3. (In general: Surface plasmon resonance follows binding to a sensor surface in real time, without labels.)

Experiment [2] concerns the target T1, mFc-hNKG2D. Kind of experiment: SPR Biacore 8K 37 C; mFc-hNKG2D captured on anti-mFc chip, TriNKET as analyte; steady state fit; after 4 wks 40 C in CST pH 7.0, n=3.
Procedure: (§1) Association was monitored for 60 seconds and dissociation was monitored for 60 seconds. Surfaces were regenerated between cycles with three pulses of 10 mM glycine-HCl, pH 1.7 injected for 20 seconds at 100 μL/min. HBS-EP+ (1×) buffer was used throughout the experiment. Data were analyzed using Biacore 8K Insight evaluation software (GE Healthcare).
The target of experiment [3] is T1, mFc-hNKG2D. Kind of experiment: SPR Biacore 8K 37 C; mFc-hNKG2D captured on anti-mFc chip, TriNKET as analyte; steady state fit; control sample.
Procedure: as §1
For experiment [4], the target named is T1, mFc-hNKG2D. Kind of experiment: SPR Biacore 8K 37 C; mFc-hNKG2D captured on anti-mFc chip, TriNKET as analyte; 1:1 kinetic fit; after 4 wks 40 C in CST pH 7.0, n=3.
Procedure: as §1
A further experiment has as its target T2, Human CLEC12A-His (human, UniProt Q5QGZ9 65-265).
T2 construct: Recombinant soluble protein made in house (Dragonfly Tx); The hCLEC12A spot of the HuProt array is written under this molecule as well; also called hCLEC12A-His; hCLEC12A; not shown: His tag
T2 sequence: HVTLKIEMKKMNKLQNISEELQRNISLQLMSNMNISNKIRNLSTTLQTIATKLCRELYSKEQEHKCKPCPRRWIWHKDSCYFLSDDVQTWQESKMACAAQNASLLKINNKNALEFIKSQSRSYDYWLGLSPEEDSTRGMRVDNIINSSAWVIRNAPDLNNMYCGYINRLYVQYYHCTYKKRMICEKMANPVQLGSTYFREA
Kind of experiment: SPR Biacore 8K 37 C; TriNKET captured on anti-hFc chip, hCLEC12A-His as analyte; 1:1 fit; after 4 wks 25 C in CST pH 7.0, n=2.

For experiment [5], the target named is T3, mFc-hNKG2D (human, UniProt P26718 73-216).
T3 construct: extracellular domain; Recombinant mFc-tagged NKG2D dimer, made in house; also called human NKG2D; not shown: mouse Fc tag
T3 sequence (looked up): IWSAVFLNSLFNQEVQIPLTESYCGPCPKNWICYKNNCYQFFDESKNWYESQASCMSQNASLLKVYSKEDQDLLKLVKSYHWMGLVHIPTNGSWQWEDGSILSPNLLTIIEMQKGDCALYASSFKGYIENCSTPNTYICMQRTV
Kind of experiment: SPR, 37 C, mFc-hNKG2D captured, steady state fit; average.

Another experiment deals with T4, Cynomolgus FcRn (cynomolgus monkey, UniProt Q8SPV9 24-297; Q8SPW0 21-119).
T4 construct: Bought recombinant receptor; also called cFcRn; Cyno FcRn
T4 sequence (Q8SPV9 24-297 limits assumed, chain 1 of 2): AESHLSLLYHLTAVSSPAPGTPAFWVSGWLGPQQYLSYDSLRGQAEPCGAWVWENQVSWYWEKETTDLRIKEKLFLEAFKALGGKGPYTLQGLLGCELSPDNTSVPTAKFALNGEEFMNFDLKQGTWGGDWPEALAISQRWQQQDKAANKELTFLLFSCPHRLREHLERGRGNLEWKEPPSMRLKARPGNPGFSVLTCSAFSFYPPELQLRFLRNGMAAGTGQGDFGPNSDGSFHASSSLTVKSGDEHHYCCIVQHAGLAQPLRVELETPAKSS
T4 sequence (Q8SPW0 21-119 limits assumed, chain 2 of 2): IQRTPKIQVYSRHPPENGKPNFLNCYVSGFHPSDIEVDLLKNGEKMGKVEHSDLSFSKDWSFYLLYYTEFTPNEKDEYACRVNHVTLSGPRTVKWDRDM
Kind of experiment: SPR, steady state fit; average for AB0192.

The target in the next experiment is T5, Human FcRn (human, UniProt P55899 24-297; P61769 21-119).
T5 construct: Bought recombinant receptor; also called hFcRn
T5 sequence (P55899 24-297 limits assumed, chain 1 of 2): as the sequence (Q8SPV9 24-297 limits assumed, chain 1 of 2) above, with D39N, Q44E, S99G, G189S, N190S, M217L, T269S counted along it
T5 sequence (P61769 21-119 limits assumed, chain 2 of 2): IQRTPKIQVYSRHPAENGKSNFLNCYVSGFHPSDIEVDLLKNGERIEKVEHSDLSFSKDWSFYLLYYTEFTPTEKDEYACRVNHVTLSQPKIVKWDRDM
Kind of experiment: SPR, steady state fit; average for AB0192.

The target in experiment [6] is T6, human CLEC12A expressed on cells (human, UniProt Q5QGZ9 1-265).
T6 construct: Transduced isogenic cells or endogenous expression on AML cells; also called RMA-hCLEC12A; Ba/F3-hCLEC12A
T6 sequence: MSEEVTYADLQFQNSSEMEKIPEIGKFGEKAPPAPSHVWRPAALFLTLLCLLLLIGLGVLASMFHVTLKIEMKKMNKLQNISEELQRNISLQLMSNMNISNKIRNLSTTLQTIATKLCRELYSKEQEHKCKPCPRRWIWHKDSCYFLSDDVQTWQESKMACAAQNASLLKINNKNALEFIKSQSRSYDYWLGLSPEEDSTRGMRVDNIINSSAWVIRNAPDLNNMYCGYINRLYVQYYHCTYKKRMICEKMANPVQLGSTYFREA
Kind of experiment: flow cytometry, hCLEC12A+ Ba/F3. A general note: A flow cytometer gives signals particle by particle.

For experiment [7], the target named is T7, recombinant human CLEC12A-His (human, UniProt Q5QGZ9 65-265).
T7 construct: also called hCLEC12A-His; hCLEC12A
T7 sequence: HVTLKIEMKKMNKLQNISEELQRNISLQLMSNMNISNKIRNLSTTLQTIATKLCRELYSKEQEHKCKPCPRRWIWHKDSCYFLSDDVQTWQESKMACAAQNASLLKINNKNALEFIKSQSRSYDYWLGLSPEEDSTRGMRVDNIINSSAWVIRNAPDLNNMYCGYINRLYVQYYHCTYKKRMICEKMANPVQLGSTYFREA
Kind of experiment: SPR.

Experiment [8] addresses T8, recombinant human CD32a R131 (human, UniProt P12318 36-218, limits assumed, biotinylated).
T8 construct: also called FcγRIIa R131
T8 sequence (looked up): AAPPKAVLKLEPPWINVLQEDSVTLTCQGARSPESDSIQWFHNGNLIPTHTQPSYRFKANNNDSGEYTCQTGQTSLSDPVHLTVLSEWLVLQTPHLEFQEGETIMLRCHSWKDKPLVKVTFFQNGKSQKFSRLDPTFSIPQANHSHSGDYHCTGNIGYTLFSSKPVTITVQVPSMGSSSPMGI
Kind of experiment: SPR 25C, steady state, average.

B1: F3'-1602 TriNKET (bispecific antibody, human IgG1, kappa)
chain: QLQLQESGPGLVKPSETLSLTCTVSGFSLTNYGLHWIRQPPGKCLEWIGVIWSGGKTDYNPSLKSRVTISKDTSKNQFSLKLSSVQAADTAVYYCAKYDYDDSLDYWGQGTLVTVSSGGGGSGGGGSGGGGSGGGGSDIQMTQSPSSLSASVGDRVTITCHASQNINFWLSWYQQKPGKAPKLLIYEASNLHTGVPSRFSGSGSGTRFTLTISSLQPEDIATYYCQQSHSYPLTFGCGTKLEIKGSDKTHTCPPCPAPELLGGPSVFLFPPKPKDTLMISRTPEVTCVVVDVSHEDPEVKFNWYVDGVEVHNAKTKPREEQYNSTYRVVSVLTVLHQDWLNGKEYKCKVSNKALPAPIEKTISKAKGQPREPRVYTLPPCRDELTKNQVSLTCLVKGFYPSDIAVEWESNGQPENNYKTTPPVLVSDGSFTLYSKLTVDKSRWQQGNVFSCSVMHEALHNHYTQKSLSLSPG
heavy: EVQLVESGGGLVKPGGSLRLSCAASGFTFSSYSMNWVRQAPGKGLEWVSSISSSSSYIYYADSVKGRFTISRDNAKNSLYLQMNSLRAEDTAVYYCARGAPIGAAAGWFDPWGQGTLVTVSSASTKGPSVFPLAPSSKSTSGGTAALGCLVKDYFPEPVTVSWNSGALTSGVHTFPAVLQSSGLYSLSSVVTVPSSSLGTQTYICNVNHKPSNTKVDKKVEPKSCDKTHTCPPCPAPELLGGPSVFLFPPKPKDTLMISRTPEVTCVVVDVSHEDPEVKFNWYVDGVEVHNAKTKPREEQYNSTYRVVSVLTVLHQDWLNGKEYKCKVSNKALPAPIEKTISKAKGQPREPQVCTLPPSRDELTENQVSLTCLVKGFYPSDIAVEWESNGQPENNYKTTPPVLDSDGSFFLYSWLTVDKSRWQQGNVFSCSVMHEALHNHYTQKSLSLSPG
light: DIQMTQSPSSVSASVGDRVTITCRASQGISSWLAWYQQKPGKAPKLLIYAASSLQSGVPSRFSGSGSGTDFTLTISSLQPEDFATYYCQQGVSFPRTFGGGTKVEIKRTVAAPSVFIFPPSDEQLKSGTASVVCLLNNFYPREAKVQWKVDNALQSGNSQESVTEQDSKDSTYSLSSTLTLSKADYEKHKVYACEVTHQGLSSPVTKSFNRGEC
notes: Trispecific F3' format: CLEC12A scFv-Fc paired with NKG2D Fab-Fc; Stressed and control samples of the stability studies are the same molecule; also called AB0237
In general, Kd refers to the concentration at which binding is half-saturated. The koff is the first-order rate constant of dissociation. The term kon denotes the second-order rate constant of association. Regarding B1, the Kd with mFc-hNKG2D [1] worked out at 672 nM; with mFc-hNKG2D [2], 711 nM; with mFc-hNKG2D [3] it was 771 nM; with mFc-hNKG2D [4], 708 nM; with Human CLEC12A-His, 0.91 nM. Moreover, the koff was 0.14 s⁻¹ in the experiment with mFc-hNKG2D [4] and 0.000719 s⁻¹ in the experiment with Human CLEC12A-His. Also, the kon in the experiment with mFc-hNKG2D [4] was determined as 198000 M⁻¹ s⁻¹; in the experiment with Human CLEC12A-His it was 788000 M⁻¹ s⁻¹.

B2: AB0192 TriNKET (other)
chain: EVQLVESGGGVVQPGGSLRLSCAASGFTFNAFGMHWVRQAPGKCLEWVAFISSGSTSIYYANTVKGRFTISRDNSKNTLYLQMNSLRAEDTAVYYCARDGYPTGGAMDYWGQGTSVTVSSGGGGSGGGGSGGGGSGGGGSDIQMTQSPSSLSASVGDRVTITCKASQDIYNYLSWFQQKPGKAPKPLIYRANILVSGVPSRFSGSGSGQDYTFTISSLQPEDIATYYCLQFDAFPFTFGCGTKLEIKGSDKTHTCPPCPAPELLGGPSVFLFPPKPKDTLMISRTPEVTCVVVDVSHEDPEVKFNWYVDGVEVHNAKTKPREEQYNSTYRVVSVLTVLHQDWLNGKEYKCKVSNKALPAPIEKTISKAKGQPREPRVYTLPPCRDELTKNQVSLTCLVKGFYPSDIAVEWESNGQPENNYKTTPPVLVSDGSFTLYSKLTVDKSRWQQGNVFSCSVMHEALHNHYTQKSLSLSPG
heavy: EVQLVESGGGLVKPGGSLRLSCAASGFTFSSYSMNWVRQAPGKGLEWVSSISSSSSYIYYADSVKGRFTISRDNAKNSLYLQMNSLRAEDTAVYYCARGAPIGAAAGWFDPWGQGTLVTVSSASTKGPSVFPLAPSSKSTSGGTAALGCLVKDYFPEPVTVSWNSGALTSGVHTFPAVLQSSGLYSLSSVVTVPSSSLGTQTYICNVNHKPSNTKVDKKVEPKSCDKTHTCPPCPAPELLGGPSVFLFPPKPKDTLMISRTPEVTCVVVDVSHEDPEVKFNWYVDGVEVHNAKTKPREEQYNSTYRVVSVLTVLHQDWLNGKEYKCKVSNKALPAPIEKTISKAKGQPREPQVCTLPPSRDELTENQVSLTCLVKGFYPSDIAVEWESNGQPENNYKTTPPVLDSDGSFFLYSWLTVDKSRWQQGNVFSCSVMHEALHNHYTQKSLSLSPG
light: DIQMTQSPSSVSASVGDRVTITCRASQGISSWLAWYQQKPGKAPKLLIYAASSLQSGVPSRFSGSGSGTDFTLTISSLQPEDFATYYCQQGVSFPRTFGGGTKVEIKRTVAAPSVFIFPPSDEQLKSGTASVVCLLNNFYPREAKVQWKVDNALQSGNSQESVTEQDSKDSTYSLSSTLTLSKADYEKHKVYACEVTHQGLSSPVTKSFNRGEC
notes: the condition stands under assay; also called AB0192 Lot AB0192-005
With B2, the Kd with mFc-hNKG2D [5] amounted to 781 nM; in the experiment with Cynomolgus FcRn, 1400 nM; in the experiment with Human FcRn, 1500 nM.

B3: F3'-1602 TriNKET (other)
chain: QLQLQESGPGLVKPSETLSLTCTVSGFSLTNYGLHWIRQPPGKCLEWIGVIWSGGKTDYNPSLKSRVTISKDTSKNQFSLKLSSVQAADTAVYYCAKYDYDDSLDYWGQGTLVTVSSGGGGSGGGGSGGGGSGGGGSDIQMTQSPSSLSASVGDRVTITCHASQNINFWLSWYQQKPGKAPKLLIYEASNLHTGVPSRFSGSGSGTRFTLTISSLQPEDIATYYCQQSHSYPLTFGCGTKLEIKGSDKTHTCPPCPAPELLGGPSVFLFPPKPKDTLMISRTPEVTCVVVDVSHEDPEVKFNWYVDGVEVHNAKTKPREEQYNSTYRVVSVLTVLHQDWLNGKEYKCKVSNKALPAPIEKTISKAKGQPREPRVYTLPPCRDELTKNQVSLTCLVKGFYPSDIAVEWESNGQPENNYKTTPPVLVSDGSFTLYSKLTVDKSRWQQGNVFSCSVMHEALHNHYTQKSLSLSPG
heavy: EVQLVESGGGLVKPGGSLRLSCAASGFTFSSYSMNWVRQAPGKGLEWVSSISSSSSYIYYADSVKGRFTISRDNAKNSLYLQMNSLRAEDTAVYYCARGAPIGAAAGWFDPWGQGTLVTVSSASTKGPSVFPLAPSSKSTSGGTAALGCLVKDYFPEPVTVSWNSGALTSGVHTFPAVLQSSGLYSLSSVVTVPSSSLGTQTYICNVNHKPSNTKVDKKVEPKSCDKTHTCPPCPAPELLGGPSVFLFPPKPKDTLMISRTPEVTCVVVDVSHEDPEVKFNWYVDGVEVHNAKTKPREEQYNSTYRVVSVLTVLHQDWLNGKEYKCKVSNKALPAPIEKTISKAKGQPREPQVCTLPPSRDELTENQVSLTCLVKGFYPSDIAVEWESNGQPENNYKTTPPVLDSDGSFFLYSWLTVDKSRWQQGNVFSCSVMHEALHNHYTQKSLSLSPG
light: DIQMTQSPSSVSASVGDRVTITCRASQGISSWLAWYQQKPGKAPKLLIYAASSLQSGVPSRFSGSGSGTDFTLTISSLQPEDFATYYCQQGVSFPRTFGGGTKVEIKRTVAAPSVFIFPPSDEQLKSGTASVVCLLNNFYPREAKVQWKVDNALQSGNSQESVTEQDSKDSTYSLSSTLTLSKADYEKHKVYACEVTHQGLSSPVTKSFNRGEC
notes: CLEC12A scFv-Fc, NKG2D A49MI Fab-Fc, human IgG1 Fc; also called AB0237
As usually defined, the EC50 is the concentration at which the effect is half-maximal. High values mean a need for much substance, low ones an effect from little substance. Turning to B3, in experiment [6], a half-maximal response (EC50) required 2 nM and the “Max binding MFI” value was found to be 14700 MFI. The Kd in [7] is 0.8 nM. Besides, the Kd in experiment [8] was found to be 1400 nM.
